# Data: patent publication US20260042849
# B1: human recombinant MMP2 (R&D Systems, catalog No: 902-MP) (protein)
# chain: YNFFPRKPKWDKNQITYRIIGYTPDLDPETVDDAFARAFQVWSDVTPLRFSRIHDGEADIMINFGRWEHGDGYPFDGKDGLLAHAFAPGTGVGGDSHFDDDELWTLGEGQVVRVKYGNADGEYCKFPFLFNGKEYNSCTDTGRSDGFLWCSTTYNFEKDGKYGFCPHEALFTMGGNAEGQPCKFPFRFQGTSYDSCTTEGRTDGYRWCGTTEDYDRDKKYGFCPETAMSTVGGNSEGAPCVFPFTFLGNKYESCTSAGRSDGKMWCATTANYDDDRKWGFCPDQGYSLFLVAAHEFGHAMGLEHSQDPGALMAPIYTYTKNFRLSQDDIKGIQELYGASPDIDLGTGPTPTLGPVTPEICKQDIVFDGIAQIRGEIFFFKDRFIWRTVTPRDKPMGPLLVATFWPELPEKIDAVYEAPQEEKAVFFAGNEYWIYSASTLERGYPKPLTSLGLPPDVQRVDAAFNWSKNKKTYIFAGDKFWRYNEVKKKMDPGFPKLIADAWNAIPDNLDAVVDLQGGGHSYFFKGAYYLKLENQSLKSVKFGSIKSDWLGC
# B2: human recombinant MT-SP1 (R&D Systems, catalog No: 3946-SEB) (protein)
# chain: VVGGTDADEGEWPWQVSLHALGQGHICGASLISPNWLVSAAHCYIDDRGFRYSDPTQWTAFLGLHDQSQRSAPGVQERRLKRIISHPFFNDFTFDYDIALLELEKPAEYSSMVRPICLPDASHVFPAGKAIWVTGWGHTQYGGTGALILQKGEIRVINQTTCENLLPQQITPRMMCVGFLSGGVDSCQGDSGGPLSSVEADGRIFQAGVVSWGDGCAQRNKPGVYTRLPLFRDWIKENTGV
# How the values were obtained:
# [1] = target: internally quenched peptide probe with CM PWGLRS (SEQ ID NO: 181)
# [2] = target: internally quenched peptide probe with CM 7054 (PKGL, SEQ ID NO: 108)
# [3] = target: internally quenched peptide probe with CM 7049 (PFGL, SEQ ID NO: 104)
# [4] = target: internally quenched peptide probe with CM 7055 (PHGL, SEQ ID NO: 10)
# [5] = target: internally quenched peptide probe with CM PMGLKS (SEQ ID NO: 5)
# [6] = target: internally quenched peptide probe with CM 7053 (PQGL, SEQ ID NO: 9)
# [7] = target: internally quenched peptide probe with CM 7056 (PEGL, SEQ ID NO: 11)
# [8] = target: internally quenched peptide probe with CM 7041 (PWGL, SEQ ID NO: 100)
# [9] = target: internally quenched peptide probe with CM 7051 (PMGL, SEQ ID NO: 106)
# [10] = target: internally quenched peptide probe with CM APMGLKH (SEQ ID NO: 7)
# [11] = target: internally quenched peptide probe with CM PMGLK (SEQ ID NO: 64)
# [12] = target: internally quenched peptide probe with CM RSPWGL (SEQ ID NO: 182)
# [13] = target: internally quenched peptide probe with CM 7052 (PLGL, SEQ ID NO: 107)
# [14] = target: internally quenched peptide probe with CM 7047 (PYGL, SEQ ID NO: 103)
# [15] = target: internally quenched peptide probe with CM 7050 (PRGL, SEQ ID NO: 105)
protein,measurement,setting,value
B1,Probe Cleavage (kcat/KM),[1],140000 M⁻¹ s⁻¹
same,Probe Cleavage (pM/s),[1],3800 pM/s
same,"stated: cleaved (kcat/Km, M-1s-1, bar on a log axis)",[2],"PKGL, MMP2 bar ends between 1x10^4 and 1x10^5"
same,kcat/KM (M^-1 s^-1),[3],greater than 5×10^2 M^-1 s^-1
same,"stated: cleaved (kcat/Km, M-1s-1, bar on a log axis)",[3],"PFGL, MMP2 bar ends between 1x10^3 and 1x10^4"
same,"stated: cleaved (kcat/Km, M-1s-1, bar on a log axis)",[4],"PHGL, MMP2 bar ends just above the 1x10^4 tick"
same,Probe Cleavage (kcat/KM),[5],8.5e+06 M⁻¹ s⁻¹
same,Probe Cleavage (pM/s),[5],119000 pM/s
same,"stated: cleaved (kcat/Km, M-1s-1, bar on a log axis)",[6],"PQGL, MMP2 bar ends between 1x10^4 and 1x10^5"
same,kcat/KM (M^-1 s^-1),[7],greater than 5×10^2 M^-1 s^-1
same,"stated: cleaved (kcat/Km, M-1s-1, bar on a log axis)",[7],"PEGL, MMP2 bar ends between 1x10^3 and 1x10^4"
same,"stated: cleaved (kcat/Km, M-1s-1, bar on a log axis)",[8],"PWGL, MMP2 bar ends between 1x10^3 and 1x10^4"
same,"stated: cleaved (kcat/Km, M-1s-1, bar on a log axis)",[9],"PMGL, MMP2 bar ends between 1x10^4 and 1x10^5"
same,Probe Cleavage (kcat/KM),[10],2.7e+06 M⁻¹ s⁻¹
same,Probe Cleavage (pM/s),[10],81700 pM/s
same,Probe Cleavage (kcat/KM),[11],180000 M⁻¹ s⁻¹
same,Probe Cleavage (pM/s),[11],4690 pM/s
same,Probe Cleavage (kcat/KM),[12],260000 M⁻¹ s⁻¹
same,Probe Cleavage (pM/s),[12],11700 pM/s
same,"stated: cleaved (kcat/Km, M-1s-1, bar on a log axis)",[13],"PLGL, MMP2 bar ends between 1x10^4 and 1x10^5"
same,kcat/KM (M^-1 s^-1),[14],greater than 5×10^2 M^-1 s^-1
same,"stated: cleaved (kcat/Km, M-1s-1, bar on a log axis)",[14],"PYGL, MMP2 bar ends between 1x10^3 and 1x10^4"
same,"stated: cleaved (kcat/Km, M-1s-1, bar on a log axis)",[15],"PRGL, MMP2 bar ends between 1x10^4 and 1x10^5; the highest MMP2 bar of the ten peptide probes"
B2,Probe Cleavage (kcat/KM),[1],31000 M⁻¹ s⁻¹
same,Probe Cleavage (pM/s),[1],1230 pM/s
same,Probe Cleavage (kcat/KM),[5],320000 M⁻¹ s⁻¹
same,Probe Cleavage (pM/s),[5],14100 pM/s
same,Probe Cleavage (kcat/KM),[10],77000 M⁻¹ s⁻¹
same,Probe Cleavage (pM/s),[10],3330 pM/s
same,Probe Cleavage (kcat/KM),[11],1600 M⁻¹ s⁻¹
same,Probe Cleavage (pM/s),[11],46.1 pM/s
same,Probe Cleavage (kcat/KM),[12],48000 M⁻¹ s⁻¹
same,Probe Cleavage (pM/s),[12],2390 pM/s
